Test [1] concerns the target human TNF alpha (Miltenyi, from yeast, Catalog no. 130-094) (human) (UniProt P01375). Description: SPR, Biacore 8K (column head prints nM; koff/kon gives this number in M). A general note: Surface plasmon resonance follows binding to a sensor surface in real time, without labels.
For test [2] the target is unchanged. Description: SPR, Biacore 8K.
For test [3], the target named is Llama Anti-human LC-kappa VHH Single Domain Antibody [Biotin] (CAT #: NABG-118). Description: BLI, biotinylated VHH ligand on streptavidin biosensor. (In general: In BLI a coated tip is dipped into the sample, and binding shifts an interference pattern.)

Here are results for four substances from patent publication US20240018201A1.

For orientation: Kd means a measure of binding affinity in units of concentration. A lower Kd goes with tighter binding. Broadly, the koff is the rate constant with which the complex falls apart. Low readings indicate slow dissociation, high ones fast dissociation. A word on the kon: it is the rate constant with which the complex forms.

UniProt P01375, sequence (P01375 77-233 limits assumed): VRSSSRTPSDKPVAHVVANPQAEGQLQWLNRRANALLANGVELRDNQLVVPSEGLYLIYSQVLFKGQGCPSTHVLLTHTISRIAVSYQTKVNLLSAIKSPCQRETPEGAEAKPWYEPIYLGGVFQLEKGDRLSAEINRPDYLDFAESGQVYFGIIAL

As to “Adalimumab variant with Thr109Arg + Ser202Arg light chains (L234A/L235A Fc) (antibody)”, the Kd in test [1] was determined as 0.0583 nM. In test [2], the % KD to wildtype worked out at 110%, the % koff to wildtype came out at 90.5%, the % kon to wildtype was 90.5% and the koff came to 0.000216 s⁻¹. Moreover, the kon in test [2] was found to be 3.71e+06 M⁻¹ s⁻¹. The substance further gave a % Response BLI of construct in comparison to wildtype (=% Binding to Kappa-ligand) in test [3] of 12.5%.
As to “Adalimumab variant with Gln199Trp light chains (L234A/L235A Fc) (antibody)”, in test [1], the Kd was 0.0528 nM. In test [2], this substance gave a % KD to wildtype of 99.4%, a % koff to wildtype of 96.1%, a % kon to wildtype of 96.1% and a koff of 0.000208 s⁻¹. The same substance returned a kon in test [2] of 3.94e+06 M⁻¹ s⁻¹. The substance also registered a % Response BLI of construct in comparison to wildtype (=% Binding to Kappa-ligand) in test [3] of 1.66%.
As to “Adalimumab variant with His198Arg light chains (L234A/L235A Fc) (antibody)”, in test [1], the Kd was 0.0553 nM. In test [2], this substance returned a % KD to wildtype of 104%, a % koff to wildtype of 92.7%, a % kon to wildtype of 92.7% and a koff of 0.00021 s⁻¹. For the same substance, the kon in test [2] worked out at 3.8e+06 M⁻¹ s⁻¹. This substance returned a % Response BLI of construct in comparison to wildtype (=% Binding to Kappa-ligand) in test [3] of 7.87%.
“Adalimumab with WT light chain (no mutations) and L234A/L235A human IgG Fc variant (antibody)”: the Kd in test [1] came out at 0.0531 nM. Further, in test [3], the % Response BLI of construct in comparison to wildtype (=% Binding to Kappa-ligand) worked out at 100%.
